Key:
c-Src SH2 = assay: SH2 binding enrichment of the phosphorylated peptide, bacterial display (enrichment ratio); higher = better substrate or ligand; peptides without Tyr show the background
Grb2 SH2 = Grb2 SH2 (UniProt P62993); assay: as above
SHP2-C SH2 = assay: as above
Fyn = Fyn (UniProt P06241); assay: phosphorylation enrichment, bacterial display (enrichment ratio); higher = better substrate or ligand; peptides without Tyr show the background
AncSZ = assay: as above
Fer (mouse) = assay: as above
MERTK = MERTK (UniProt Q12866); assay: as above
MERTK, sequence (Q12866 whole entry, looked up): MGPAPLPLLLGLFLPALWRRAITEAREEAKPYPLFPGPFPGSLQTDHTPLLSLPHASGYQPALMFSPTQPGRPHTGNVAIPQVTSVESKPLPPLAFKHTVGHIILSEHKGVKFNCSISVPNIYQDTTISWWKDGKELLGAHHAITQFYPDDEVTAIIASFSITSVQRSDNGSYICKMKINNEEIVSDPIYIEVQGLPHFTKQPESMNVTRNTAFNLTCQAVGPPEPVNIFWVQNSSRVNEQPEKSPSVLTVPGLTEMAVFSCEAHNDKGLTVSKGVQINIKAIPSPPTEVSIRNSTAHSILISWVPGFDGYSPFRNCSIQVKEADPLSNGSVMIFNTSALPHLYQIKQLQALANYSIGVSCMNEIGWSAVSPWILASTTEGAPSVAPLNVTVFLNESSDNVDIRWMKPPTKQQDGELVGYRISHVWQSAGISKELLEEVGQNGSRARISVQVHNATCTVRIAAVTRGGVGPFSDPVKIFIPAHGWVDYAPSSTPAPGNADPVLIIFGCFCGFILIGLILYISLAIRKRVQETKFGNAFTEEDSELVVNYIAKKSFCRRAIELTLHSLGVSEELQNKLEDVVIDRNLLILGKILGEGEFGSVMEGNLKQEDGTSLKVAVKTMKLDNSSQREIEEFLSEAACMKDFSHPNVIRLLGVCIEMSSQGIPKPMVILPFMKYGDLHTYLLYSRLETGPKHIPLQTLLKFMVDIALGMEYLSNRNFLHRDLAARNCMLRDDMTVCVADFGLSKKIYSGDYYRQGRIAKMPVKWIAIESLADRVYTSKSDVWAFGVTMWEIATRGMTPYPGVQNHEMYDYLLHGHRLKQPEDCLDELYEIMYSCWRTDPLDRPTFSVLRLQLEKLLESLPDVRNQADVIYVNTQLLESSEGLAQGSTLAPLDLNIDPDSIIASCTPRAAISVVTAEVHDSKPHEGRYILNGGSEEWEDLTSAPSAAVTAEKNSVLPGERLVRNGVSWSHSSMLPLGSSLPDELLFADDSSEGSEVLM

c-Abl (mouse) = assay: as above
Fes = Fes (UniProt P07332); assay: as above
Fes, sequence (P07332 whole entry, looked up): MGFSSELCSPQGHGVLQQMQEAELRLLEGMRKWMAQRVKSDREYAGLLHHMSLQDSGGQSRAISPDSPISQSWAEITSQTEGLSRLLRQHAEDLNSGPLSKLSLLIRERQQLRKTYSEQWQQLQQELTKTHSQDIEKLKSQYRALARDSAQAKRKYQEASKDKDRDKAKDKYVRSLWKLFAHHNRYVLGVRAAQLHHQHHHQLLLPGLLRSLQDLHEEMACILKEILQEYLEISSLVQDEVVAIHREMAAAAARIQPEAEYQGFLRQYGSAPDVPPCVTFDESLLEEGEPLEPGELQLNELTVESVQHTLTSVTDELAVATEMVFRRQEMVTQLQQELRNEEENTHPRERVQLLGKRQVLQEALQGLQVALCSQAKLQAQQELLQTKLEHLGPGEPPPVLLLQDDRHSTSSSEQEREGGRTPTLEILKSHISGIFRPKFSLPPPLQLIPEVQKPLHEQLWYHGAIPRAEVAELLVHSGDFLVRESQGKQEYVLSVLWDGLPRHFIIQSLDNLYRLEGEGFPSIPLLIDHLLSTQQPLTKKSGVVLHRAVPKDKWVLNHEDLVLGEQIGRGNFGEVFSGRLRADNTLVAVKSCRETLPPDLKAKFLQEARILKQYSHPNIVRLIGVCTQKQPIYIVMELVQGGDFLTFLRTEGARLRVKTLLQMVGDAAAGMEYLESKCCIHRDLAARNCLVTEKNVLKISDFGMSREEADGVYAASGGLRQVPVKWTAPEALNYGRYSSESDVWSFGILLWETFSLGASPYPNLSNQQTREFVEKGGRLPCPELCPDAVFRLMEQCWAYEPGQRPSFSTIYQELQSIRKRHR

EPHB1 = EPHB1 (UniProt P54762); assay: as above
EPHB1, sequence (P54762 whole entry, looked up): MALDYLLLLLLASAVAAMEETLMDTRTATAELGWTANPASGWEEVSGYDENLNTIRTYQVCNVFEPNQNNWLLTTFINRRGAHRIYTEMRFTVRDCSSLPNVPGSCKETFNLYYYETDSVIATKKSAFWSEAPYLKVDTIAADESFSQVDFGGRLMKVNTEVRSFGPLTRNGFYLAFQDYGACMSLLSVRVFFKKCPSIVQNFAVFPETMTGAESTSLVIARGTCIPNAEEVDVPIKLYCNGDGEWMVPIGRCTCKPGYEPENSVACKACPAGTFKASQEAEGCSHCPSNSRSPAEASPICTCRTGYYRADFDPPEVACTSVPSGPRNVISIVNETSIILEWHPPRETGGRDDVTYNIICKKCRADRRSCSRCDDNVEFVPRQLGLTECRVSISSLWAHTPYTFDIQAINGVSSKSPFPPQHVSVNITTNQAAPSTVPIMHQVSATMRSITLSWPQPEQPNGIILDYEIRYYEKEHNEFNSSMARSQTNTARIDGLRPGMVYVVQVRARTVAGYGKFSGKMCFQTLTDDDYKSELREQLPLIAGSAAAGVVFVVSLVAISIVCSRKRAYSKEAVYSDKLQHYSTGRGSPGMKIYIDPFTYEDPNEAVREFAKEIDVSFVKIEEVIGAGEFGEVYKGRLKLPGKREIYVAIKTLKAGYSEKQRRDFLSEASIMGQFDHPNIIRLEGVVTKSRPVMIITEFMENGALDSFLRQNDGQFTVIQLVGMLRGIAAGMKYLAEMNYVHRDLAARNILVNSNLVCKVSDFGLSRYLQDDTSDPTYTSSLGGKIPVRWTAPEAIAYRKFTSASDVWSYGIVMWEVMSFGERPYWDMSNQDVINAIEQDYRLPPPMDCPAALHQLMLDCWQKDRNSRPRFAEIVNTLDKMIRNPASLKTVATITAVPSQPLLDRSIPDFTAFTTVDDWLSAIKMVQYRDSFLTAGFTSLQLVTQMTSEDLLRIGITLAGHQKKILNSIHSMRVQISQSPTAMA

Hck = Hck (UniProt P08631); assay: as above
Jak2 = Jak2 (UniProt O60674); assay: as above
FGFR1 = FGFR1 (UniProt P11362); assay: as above
FGFR1, sequence (P11362 whole entry, looked up): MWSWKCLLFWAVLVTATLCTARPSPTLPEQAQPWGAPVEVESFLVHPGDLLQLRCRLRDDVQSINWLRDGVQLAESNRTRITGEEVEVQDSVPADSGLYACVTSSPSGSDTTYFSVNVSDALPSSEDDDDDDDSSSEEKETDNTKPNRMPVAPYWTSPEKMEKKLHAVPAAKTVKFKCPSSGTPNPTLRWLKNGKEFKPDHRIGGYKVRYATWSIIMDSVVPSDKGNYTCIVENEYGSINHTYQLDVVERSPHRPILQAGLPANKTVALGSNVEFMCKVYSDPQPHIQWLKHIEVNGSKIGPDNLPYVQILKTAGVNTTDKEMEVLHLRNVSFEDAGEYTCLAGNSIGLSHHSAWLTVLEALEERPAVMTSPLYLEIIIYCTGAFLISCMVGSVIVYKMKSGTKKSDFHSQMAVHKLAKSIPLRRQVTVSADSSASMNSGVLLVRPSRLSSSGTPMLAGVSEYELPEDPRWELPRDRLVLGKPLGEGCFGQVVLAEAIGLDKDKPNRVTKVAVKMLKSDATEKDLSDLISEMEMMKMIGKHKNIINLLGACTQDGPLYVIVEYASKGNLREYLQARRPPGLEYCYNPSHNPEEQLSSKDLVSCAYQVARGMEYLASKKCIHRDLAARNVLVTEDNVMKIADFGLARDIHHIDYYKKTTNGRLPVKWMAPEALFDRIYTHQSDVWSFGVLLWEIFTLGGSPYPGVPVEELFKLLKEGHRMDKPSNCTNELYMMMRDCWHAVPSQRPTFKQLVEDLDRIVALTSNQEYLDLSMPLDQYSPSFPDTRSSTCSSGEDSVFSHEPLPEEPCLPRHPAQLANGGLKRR

c-Src = assay: as above
FGFR3 = FGFR3 (UniProt P22607); assay: as above
FGFR3, sequence (P22607 whole entry, looked up): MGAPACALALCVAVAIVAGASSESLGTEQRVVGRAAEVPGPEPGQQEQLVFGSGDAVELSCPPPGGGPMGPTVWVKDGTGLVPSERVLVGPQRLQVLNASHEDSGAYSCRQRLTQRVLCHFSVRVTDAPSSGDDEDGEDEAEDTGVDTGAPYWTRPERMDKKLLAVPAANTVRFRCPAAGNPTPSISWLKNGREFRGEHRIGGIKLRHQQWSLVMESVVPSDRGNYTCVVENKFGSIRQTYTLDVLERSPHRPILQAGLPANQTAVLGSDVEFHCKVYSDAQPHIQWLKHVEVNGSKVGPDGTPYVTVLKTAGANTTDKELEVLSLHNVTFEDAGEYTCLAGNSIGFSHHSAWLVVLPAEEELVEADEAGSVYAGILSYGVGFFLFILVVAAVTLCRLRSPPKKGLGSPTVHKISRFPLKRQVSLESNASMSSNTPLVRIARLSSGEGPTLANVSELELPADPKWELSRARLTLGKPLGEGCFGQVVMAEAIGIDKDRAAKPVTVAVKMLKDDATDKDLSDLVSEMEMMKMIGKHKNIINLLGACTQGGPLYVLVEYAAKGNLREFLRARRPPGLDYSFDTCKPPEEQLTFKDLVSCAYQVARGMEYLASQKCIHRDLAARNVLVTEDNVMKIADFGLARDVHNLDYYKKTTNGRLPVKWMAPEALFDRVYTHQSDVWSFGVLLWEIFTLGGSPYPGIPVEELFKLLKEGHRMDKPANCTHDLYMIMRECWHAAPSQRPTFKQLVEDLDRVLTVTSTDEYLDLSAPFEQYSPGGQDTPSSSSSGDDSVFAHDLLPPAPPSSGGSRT

EPHB2 = EPHB2 (UniProt P29323); assay: as above
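For SH2 binding enrichment of the phosphorylated peptide, bacterial display in this document: peptide library displayed on the E. coli surface as eCPX fusions, selected cells deep-sequenced, score is each peptide's frequency after selection divided by its frequency in the input.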
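For phosphorylation enrichment, bacterial display in this document: 11-residue human phosphosite peptides and single-mutation variants displayed on the E. coli surface, counted by deep sequencing, each peptide's frequency after selection divided by its frequency in the unselected input library; frequency after pTyr selection over input frequency; kinase dosed for 20-30% of maximal phosphorylation in three min.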

Fyn, sequence (P06241 whole entry, looked up): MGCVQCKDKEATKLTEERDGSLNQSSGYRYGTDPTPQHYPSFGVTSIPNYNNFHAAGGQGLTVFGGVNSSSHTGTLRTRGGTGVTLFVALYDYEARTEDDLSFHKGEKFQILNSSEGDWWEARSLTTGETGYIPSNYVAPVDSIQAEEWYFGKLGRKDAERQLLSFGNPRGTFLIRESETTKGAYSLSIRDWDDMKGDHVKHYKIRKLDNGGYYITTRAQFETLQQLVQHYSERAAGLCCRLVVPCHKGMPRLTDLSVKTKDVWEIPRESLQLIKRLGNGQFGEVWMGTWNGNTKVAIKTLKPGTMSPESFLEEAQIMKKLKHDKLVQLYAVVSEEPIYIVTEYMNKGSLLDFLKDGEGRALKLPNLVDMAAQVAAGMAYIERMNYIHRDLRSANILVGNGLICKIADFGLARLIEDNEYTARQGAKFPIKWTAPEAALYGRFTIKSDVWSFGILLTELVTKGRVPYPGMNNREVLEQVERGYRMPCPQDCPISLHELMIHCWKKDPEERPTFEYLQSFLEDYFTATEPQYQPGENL

| Sequence | SH2 binding enrichment (c-Src SH2) | SH2 binding enrichment (Grb2 SH2) | SH2 binding enrichment (SHP2-C SH2) | phosphorylation enrichment (Fyn) | phosphorylation enrichment (AncSZ) | phosphorylation enrichment (Fer (mouse)) | phosphorylation enrichment (MERTK) | phosphorylation enrichment (c-Abl (mouse)) | phosphorylation enrichment (Fes) | phosphorylation enrichment (EPHB1) | phosphorylation enrichment (Hck) | phosphorylation enrichment (Jak2) | phosphorylation enrichment (FGFR1) | phosphorylation enrichment (c-Src) | phosphorylation enrichment (FGFR3) | phosphorylation enrichment (EPHB2) |
| --- | --- | --- | --- | --- | --- | --- | --- | --- | --- | --- | --- | --- | --- | --- | --- | --- |
| EIEFLYNENTV [IARS1_Y680] | 0.615 | 0.682 | 0.619 | 0.479 | 1.35 | 0.632 | 0.515 | 0.927 | 1.26 | 0.641 | 0.622 | 1.26 | 0.645 | 0.557 | 0.724 | 0.584 |
| VDASFYGGRGV [ANTXR2_Y381_YF] | 0.5 | 0.721 | 0.576 | 0.447 | 0.561 | 0.336 | 0.377 | 0.443 | 0.632 | 0.396 | 0.91 | 0.574 | 0.32 | 0.391 | 0.463 | 0.338 |
| LYEDRYLLGTS [ASS1_Y87] | 0.546 | 0.82 | 1.05 | 1.79 | 0.982 | 4.27 | 0.786 | 0.79 | 0.981 | 3.01 | 3.73 | 0.894 | 0.702 | 0.837 | 0.95 | 1.23 |
| TKQLTYEEQDL [PIK3C3_Y310] | 0.541 | 0.786 | 0.686 | 0.529 | 1.27 | 0.649 | 0.483 | 1.01 | 1.38 | 0.655 | 0.552 | 1.19 | 0.576 | 0.539 | 0.791 | 0.653 |
| SIKDKYVTAVY [KCNH2_Y611_L615V] | 0.48 | 0.808 | 0.664 | 0.545 | 0.565 | 0.431 | 0.443 | 0.441 | 0.705 | 0.446 | 0.552 | 0.585 | 0.498 | 0.49 | 0.638 | 0.423 |
| ANRNVYEVEPT [MEGF10_Y1075] | 1.3 | 0.818 | 1.08 | 6.32 | 0.787 | 0.473 | 0.476 | 0.6 | 0.755 | 0.451 | 0.842 | 0.63 | 0.404 | 4 | 0.47 | 0.5 |
| PLCPDYQEPSR [DDR2_Y481_R478C] | 0.786 | 0.86 | 0.781 | 1.12 | 3.5 | 0.999 | 0.854 | 0.896 | 2 | 1.43 | 1.01 | 1.23 | 0.643 | 0.61 | 1.46 | 2.01 |
| CENNRYGMGAS [PDHA1_Y227_T231A] | 0.457 | 0.849 | 0.723 | 0.405 | 0.655 | 0.365 | 0.324 | 0.594 | 0.754 | 0.403 | 0.392 | 0.629 | 0.413 | 0.349 | 0.476 | 0.421 |
| AKLKDYYIFNK [CCDC42_Y149] | 0.823 | 1 | 0.711 | 0.515 | 0.596 | 0.457 | 0.704 | 0.65 | 0.635 | 0.449 | 0.503 | 0.605 | 3.4 | 0.808 | 2.16 | 0.594 |
| SAEKAYHEQLS [TUBA1A_Y282] | 0.506 | 0.951 | 0.785 | 0.428 | 0.558 | 0.425 | 0.418 | 0.511 | 0.844 | 0.462 | 0.443 | 0.619 | 0.604 | 0.369 | 0.572 | 0.424 |
| EIIPFYGMSTY [FNDC3B_Y175] | 4.96 | 0.742 | 0.539 | 0.864 | 0.751 | 0.88 | 0.687 | 0.818 | 0.875 | 0.685 | 1.1 | 0.768 | 0.454 | 0.902 | 0.709 | 0.681 |
| ACQGKYTPSGQ [ALDOA_Y343] | 0.551 | 0.843 | 0.75 | 0.479 | 0.598 | 0.531 | 0.378 | 0.693 | 0.742 | 0.414 | 0.46 | 0.851 | 0.406 | 0.463 | 0.734 | 0.402 |
| WTAHSYRMGSA [ARHGEF7_Y785_T790A] | 0.545 | 0.96 | 0.794 | 0.503 | 0.683 | 0.38 | 0.377 | 0.495 | 0.736 | 0.477 | 0.443 | 0.679 | 0.556 | 0.48 | 0.438 | 0.457 |
| GVTLLCFGRFN [ADGRD1_Y85_Y85C_YF] | 0.465 | 0.922 | 0.863 | 0.443 | 1.14 | 0.498 | 0.384 | 0.9 | 1.53 | 0.732 | 0.587 | 1.09 | 0.524 | 0.388 | 0.885 | 0.669 |

Reference: the supplement of paper PMC10065799, “High-throughput profiling of sequence recognition by tyrosine kinases and SH2 domains using bacterial peptide display” (eLife, 2023)
